Results reported in the supplement of paper PMC12764529.
± gives the half width of the 95% confidence interval.

Assays:
[1] = folding stability dG unfold (combined trypsin and chymotrypsin); higher = more stable
Outline: (§1)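 Sequencing followed digestion of designed mini-proteins with trypsin and chymotrypsin, each at 11 concentrations in threefold dilutions together with a no-protease condition. The mini-proteins were under 80 residues, had no cysteine, sat in a PA-tagged cDNA display construct, and were kept only if AlphaFold2 dimer inter-PAE was above 15. From the counts, Bayesian fitting gave K50, and unfolding free energy was derived against a sequence-predicted unfolded-state K50 and a shared folded-state K50, per protease or combined.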

[2] = folding stability dG unfold from trypsin proteolysis; higher = more stable
Outline: as §1

[3] = folding stability dG unfold from chymotrypsin proteolysis; higher = more stable
Outline: as §1

Sequence: SAGGPLEVTLVESETTFLPEGKVVTREVTRLPDDTILVTTYTTTIDPNSGTTTTTSETVVLPAGAALSAGGS [r16_639_JUSTAS]
- folding stability dG unfold [1]: 1.49 ± 0.032 kcal/mol
- folding stability dG unfold [2]: 2.11 ± 0.046 kcal/mol
- folding stability dG unfold [3]: 0.627 ± 0.068 kcal/mol

Sequence: SMMIKVKITITNEKGEEVEIEIVASPEEIEEALRKLLPPGAKVEIEKIEFYPLEELKPGDVIKITVRVKPSA [r9_803_TrROS_Hall]
- folding stability dG unfold [1]: 3.72 ± 0.34 kcal/mol
- folding stability dG unfold [2]: 2.85 ± 0.11 kcal/mol
- folding stability dG unfold [3]: 4.47 ± 0.54 kcal/mol

Sequence: SAGKKYVVVIDIEVKMPGKTKPRPIVIPVPEGETIKEQLSELPGLDNVKIKIQVIPPDQDPDFAGQPISAGG [r19_339_TrROS]
- folding stability dG unfold [1]: 1.2 ± 0.29 kcal/mol
- folding stability dG unfold [2]: 0.569 ± 0.16 kcal/mol
- folding stability dG unfold [3]: 1.76 ± 0.17 kcal/mol

Sequence: SAGGSAGGGFVTIEVEITEVVGKTKDEEGKPHPGDPNDPSGYVKLPPFPVKVPSSPEEYAALLSSAGGSAGG [r6_219_JUSTAS]
- folding stability dG unfold [1]: 0.301 ± 0.16 kcal/mol
- folding stability dG unfold [2]: 0.551 ± 0.076 kcal/mol
- folding stability dG unfold [3]: -0.31 ± 0.62 kcal/mol

Sequence: SAGMPSVTVTPVTVTVEGTAPPDLTEEELRADPTYTRTVEIDATVTLYPETGTVTVTLPGGVTVTLPSPSAG [r5_701_JUSTAS]
- folding stability dG unfold [1]: 0.79 ± 0.095 kcal/mol
- folding stability dG unfold [2]: 0.432 ± 0.075 kcal/mol
- folding stability dG unfold [3]: 0.929 ± 0.031 kcal/mol

Sequence: SAGGMELTIPLPNGKLLKIKVEEVKAEPVLVEFELRDANGKLIDTIPAPSGFKISIRFSVEIYDPNEYSAGG [r13_848_TrMRF]
- folding stability dG unfold [1]: 3.61 ± 0.077 kcal/mol
- folding stability dG unfold [2]: 2.92 ± 0.091 kcal/mol
- folding stability dG unfold [3]: 3.908 ± 0.032 kcal/mol

Sequence: SAGMEATIEIVGHPGDKEAIAVLRPEDKTVVIYKNKDGSYTVEVFEPNPARLIERKELPLEEAIKEALSAGG [r19_188_TrMRF]
- folding stability dG unfold [1]: 0.987 ± 0.13 kcal/mol
- folding stability dG unfold [2]: -0.343 ± 0.12 kcal/mol
- folding stability dG unfold [3]: 1.45 ± 0.064 kcal/mol

Sequence: SAGGLRVHPNSLYIWIPPGGNFDDFVKEIAQELQKKGKPMEIKVEPFPDGWYWIRIKVDGKDIEIWMSAGGS [r16_771_TrROS]
- folding stability dG unfold [1]: 3.02 ± 0.1 kcal/mol
- folding stability dG unfold [2]: 2.02 ± 0.065 kcal/mol
- folding stability dG unfold [3]: 3.24 ± 0.039 kcal/mol

Sequence: SGREEEIAEELREKLLAEGYTEVEVEIEVRPDPNSDNVLVTVTVRATKKDAEGNWKTYEETIPVLIPAEASA [r9_440_JUSTAS]
- folding stability dG unfold [1]: 3.11 ± 0.25 kcal/mol
- folding stability dG unfold [2]: 3.12 ± 0.26 kcal/mol
- folding stability dG unfold [3]: 3.23 ± 0.15 kcal/mol

Sequence: SAGGSEKVKIEIPFRHPEDGEPIFPVRIEYEKPPNGDYKLDIEIDNFPPGMKPSPAAKDAIEEFIKSAGGSA [r2_7_TrROS]
- folding stability dG unfold [1]: 0.956 ± 0.19 kcal/mol
- folding stability dG unfold [2]: 0.588 ± 0.07 kcal/mol
- folding stability dG unfold [3]: 1.29 ± 0.052 kcal/mol

Sequence: SAGGSAGGSDPTAPVITTVPFPSGAVLTITTYPDSVTITYPSPGTTYTVPASAPIPITYQPALSAGGSAGGS [r12_227_JUSTAS]
- folding stability dG unfold [1]: 0.488 ± 0.067 kcal/mol
- folding stability dG unfold [2]: 0.674 ± 0.015 kcal/mol
- folding stability dG unfold [3]: 0.0869 ± 0.12 kcal/mol

Sequence: SAGSMHLVEFTGTEEVVDEFLASLPPEVVVERERYPDRWLVRLPPDVPARTITVPTPDGRPVTFTLRLESAG [r5_123_JUSTAS]
- folding stability dG unfold [1]: -0.487 ± 0.21 kcal/mol
- folding stability dG unfold [2]: -0.851 ± 0.41 kcal/mol
- folding stability dG unfold [3]: -0.346 ± 0.31 kcal/mol

Sequence: SAGGSAPEPIRFYFWWPGKIIEITIPPDEIEKVEIKPDNGDIDITVKLPGEEVEISITPGAIHVQTSAGGSA [r15_598_TrROS]
- folding stability dG unfold [1]: 2.29 ± 0.17 kcal/mol
- folding stability dG unfold [2]: 1.56 ± 0.11 kcal/mol
- folding stability dG unfold [3]: 2.57 ± 0.032 kcal/mol

Sequence: SAKIVVKLPEKPKVAVIEFPPGMTKEEILKALEEVPGLSEEEREALKKKIEELEALAKNPELLKKLEEESAG [r14_732_TrROS_Hall]
- folding stability dG unfold [1]: 0.797 ± 0.12 kcal/mol
- folding stability dG unfold [2]: -0.378 ± 0.087 kcal/mol
- folding stability dG unfold [3]: 1.19 ± 0.051 kcal/mol

Sequence: SAGMLDVPDDAEITVLVSLEKVPLPGDSSERVLAGVVKLKVKTLPNGEQVIESAEIKIVSAEELKKAGLSAG [r5_340_TrMRF]
- folding stability dG unfold [1]: 1.43 ± 0.17 kcal/mol
- folding stability dG unfold [2]: 1.34 ± 0.038 kcal/mol
- folding stability dG unfold [3]: 1.6 ± 0.099 kcal/mol

Sequence: SAGKTVTKTKTEYEYKDGKLEKKKVKTETIEPKPKIEVKEVKITLKDGSEVTAKIVSIDPKTKKVVIELSAG [r5_735_TrROS_Hall]
- folding stability dG unfold [1]: 0.0452 ± 0.23 kcal/mol
- folding stability dG unfold [2]: 0.26 ± 0.099 kcal/mol
- folding stability dG unfold [3]: -0.0238 ± 0.075 kcal/mol

Sequence: SMKKKVVVKAKIEKIRPDGGKEELEEVFVMEVSPDDPEEIKAAIDEAIEALKKAYPNIKKIEIEEVIIEDSA [r9_436_TrMRF]
- folding stability dG unfold [1]: 3.79 ± 0.36 kcal/mol
- folding stability dG unfold [2]: 3.81 ± 0.24 kcal/mol
- folding stability dG unfold [3]: 3.36 ± 0.21 kcal/mol

Sequence: SAGGSAGGSKMLLVKVYVPEFDTVVVFEAPRDITIEEIEERLREAGFSVARIEVVEFDLPEGGSAGGSAGGS [r12_955_TrMRF]
- folding stability dG unfold [1]: 3.55 ± 0.071 kcal/mol
- folding stability dG unfold [2]: 3.02 ± 0.049 kcal/mol
- folding stability dG unfold [3]: 3.766 ± 0.022 kcal/mol

Sequence: SAGMKIKVEVKETGETYEIEISEEELKKKLKEKFPEVKEITVVVEDPEDMSEEELREKALKAAEELLKSAGG [r19_298_TrROS_Hall]
- folding stability dG unfold [1]: 2.28 ± 0.18 kcal/mol
- folding stability dG unfold [2]: 1.59 ± 0.067 kcal/mol
- folding stability dG unfold [3]: 2.49 ± 0.051 kcal/mol

Sequence: SAGSLKPGDLLYVRIYVYNPDGELLGEIDELVETEEEAERRLRELAREIEERLGRNVRVLAEIYRYPRLSAG [r5_232_TrMRF]
- folding stability dG unfold [1]: 4.19 ± 0.1 kcal/mol
- folding stability dG unfold [2]: 3.36 ± 0.088 kcal/mol
- folding stability dG unfold [3]: 4.559 ± 0.024 kcal/mol

Sequence: SAGGSAGGYRIRFKNGIEFKLPMTEGELKKMADNFPGFEVTEVEPVPPPPPPPEDLPPEQREQMSAGGSAGG [r6_881_TrROS]
- folding stability dG unfold [1]: -0.0695 ± 0.32 kcal/mol
- folding stability dG unfold [2]: -0.134 ± 0.36 kcal/mol
- folding stability dG unfold [3]: 0.148 ± 0.23 kcal/mol
